The DeepSol protein solubility set

assay: soluble on expression in E. coli; label from the status in PepcDB or PDB records

| Sequence | soluble on expression in E. coli |
| --- | --- |
| MLKIQAYFNETADLPCQFANSQNQSLSELVVFWQDQENLVLNEVYLGKEKFDSVHSKYMGRTSFDSDSWTLRLHNLQIKDKGLYQCIIHHKKPTGMIRIHQMNSELSVLA | soluble |
| GMKIEHVALWTTNLEQMKQFYVTYFGATANDLYENKTKGFNSYFLSFEDGARLEIMSRTDVTGKTTGENLGWAHIAISTGTKEAVDELTEKLRQDGFAIAGEPRMTGDGYYESVVLDPEGNRIEITW | soluble |
| MLNVEPSFAEELRSSGVSLSATYLGSVPVVESINVMVSEMRVQVVSECIQHVAATVGVTAAREINPVVSRVIGEVKKENFPVDINISSKMIKIIKQSRLIQRHPFSFFSFGAQGQKGTDTELMFGYIAKNKDGTDRRCHVVFIEDVHKLIDVLTTAINVNTFDAQANASTSNDGFTVPAPPMRHRSSLHRQSFVSNCRAPTVTEDVVGKVWYHGNLSREDAQALLKTEGDFLVRQSDHTPGKYVLSGRTAENEHKHLILLDNHNRVRTRDRTFSNISELIDYHVNNGMAVRSEGRDRETSLNLIRPVPCPGSDDIE | soluble |
| MKKIAIFGSAFNPPSLGHKSVIESLSHFDLVLLEPSIAHAWGKNMLDYPIRCKLVDAFIKDMGLSNVQRSDLEQALYQPGQSVTTYALLEKIQEIYPTADITFVIGPDNFFKFAKFYKAEEITERWTVMACPEKVKIRSTDIRNALIEGKDISTYTTPTVSELLLNEGLYRETLSGK | soluble |
| MKLELSYSDHLQLSESLNELGQTTRITQLEPGEGKYTMSFKQSTGIALAEIQSTQPLLYEGWGTTWSVDFNWITPTCHLNDPFGYCEGYEMKETSLGGFNTLNTSPGNSWGKYSNNCSSTACMLDKNILMKMLKECNAAQAIDNLSKARGLDVSSESLYQLKKLTRKDLVRGIMNPTKYYDLIVACLEGGDKRGYRKGLTKNYRLLGEIVQLSHDSRRMSSPMTLSDVCQYLDTGQASLYRVCQDYFGMGIIEMMTQIRLEEARRALLMFKQNEKNHALTVRDVALGYGFKHQGRFSRRYFTSFGELPSQTLDRSQEL | not soluble |
| MIPQIQTLQRLMKATKAARHTKMVNNLDMPFLASRLFVVPHMLASTKLDIILNALAPRLFAGEKFPIEAYSQGNTEAFRPPETYVVQNNIAIIPVHGTLVRRSAWLGALSGLTSYEGLRASFREAIAQPDVNAVLLDIDSGGGEAGGIFDLVEEFQTLSKQYAKPIWAHANEFACSAAYAIACAASQIWIARTGVVGSIGVVCAHLDQSLADEKQGLKWTFVFEGDHKTHGNSHEPLSDTAQIKMQADCALLYEMFVDWVAKNRPLSADAIRDTKAETFIGIQALELGLADAQGTLAQALEALTDSISQTPTATKEGQNTWHAHNTAPKKMMMKKLSTSSTKTKRTKTRATLMKTSTKTKMRTKINRKA | not soluble |
| MATNLKSIAKLQKPIQYDKVIEVDRIFADPAFIEQHRQRILASFKDAKESALYHELTHIVIKDNLFSAAMNEIVSYFEFQINPEELKNVVEGLKRDVVKDADEKTIQSIAEKIIKKALVFNFLQKEWKVEVSDDIVKRVISLYYEKTNQNVREYLDDKQKFEGIRTALIEERMVLETINHFKFHFNLTGQLPS | soluble |
| MGSDKIHHHHHHMSNSELYYEELTDLSVRIALGIKNRTEPLDELSQAMTQLSQTNAIKGNAANAMKAYINEVHMTLIQTLELLLNNYEMALGKYVKGYLEVDSDESFKLIKEDFDAHKNNLSSHQSDFTSIGNKLKAISDEAEDIISLRGAGSKRLFNVAKDMGTMKEIVSNLNNKWNDYEQSDPGFNQVQDLIAQTTSLLKSTLSVPRGYSYSPGSFSKLISKDFVNAFEVNANYAQNPDNQKAFKANWNSISKNYTTDQKRMAEEAKEEAQKDGRIGLIWDAIASCCRNSACCDRSWSGFWCCSHCRWY | not soluble |
| MSLSHFDSQAPTWDENPKRSLMINAIAEALRSHLPLREDFRVMDYGCGTGELSLAILPWVGYVEGIDTSKGMIDRFSQKIQERNLPNIKAKFMRAGEALEGEFDLVVCNMVLHHIPDPLLYIRQFESSIRPGGHLAIIDLDKEDGSFHPQGTPGVFHQGFSYEEIRAWLDYCYLEERLHHPSLHLIQKNEREYPLTLTLAQKPHEGHHHHHH | soluble |
| MGSDKIHHHHHHMQNVNSAFEYCDQLVKDFERVIEHPIVSKSSVYYTGIDLGTAYIVLAVLDENYQPVAGAYRFANVVKDGMVVDYIGAIRIVKELKQELEERLDTELVYAAAALPPGTMALDSGVIKHVVQGAGFEITNLLDEPTAANAVLKIKDGAIVDIGGGTTGITILKDGEVIYVADEPTGGTHFSLVIAGAYKMSFDEAENYKQNPKNHRELTPVVGPVVEKVSSILNRHLRDYQVETIYLVGGTCCLEGIETIIARQTGIPTYKPQNPMFVTPLGIALNCTQEIL | not soluble |
| MRTTSRALMYGLYDEFQISLKCPRSPPNSSFSICHAQAAFLSGVCEAMLCPLERVQVLLQTTIFHDKFKNTLHTFNRLRDYGYREYYRGFSVILIRNSLSNTIFFTLRDPLKQKIVGIPQAGRLPESLQQLIGDFVAGSLLGATISTAFFPLGVIKNHMQAKVGVKYESGFKVFRDVWQLRNRSLRGLYLGVHLNFTRSLVAWGIINSMYGILRRALAPFE | not soluble |
| MVQDWEFIVSFLKINWILMNHVTAPYSYVDVSYDNIPFVGKIPIIGKDGTSSRLGVSPFYPADGNPSNPFPPIYKARPLPLHVPEPQDVVAVPLDEEALHGEPLFPPELILPSELAAEEAAKKKALETKKPENPFADVVETNEQLDTVHWPTAVSTSEIEGEDSQGKNMVQEDEPQRSVIIDEAREKPMQPFEAAKISIGANDRPKNPFRSRRILMERF | not soluble |
| MGSDKIHHHHHHMLKLKKILADLHVEQAELAEQMAYSQATISQLVNHSVWPKRAARWGLRERILKFLKERGANDDQVATAFEEWTPTRGNASESGSHTPTGGTEDEAMSIRKQILHPNTRRHFKLPGDPFEEVASAEEFYQNEHIRFTRAAMLDAAKRGGFLAVVGESGSGKTTMRRDLQERIERESIQVQVIRPYVVAMEDNDDKGKTLKATHIAEAIMAAVAPHEVLKTSSEARFRQVEKALKESYRTGMRHVVLIEEAHAMPLATLRHLKRFIELEDGFTRLLSVILIGQTELAIKLNPKNATVREVVQRCELITLPPLGQYLEDYLKFRFARLGVQLDQMVTLDGVQAIRSRLQPEAPRGHEERSFLYPLAVHNLLTAAMNLAAENGAPAVSADIVMEAKWN | not soluble |
| MGSDKIHHHHHHMNELDIIKIISKNLSYSNGVEKGIGDDCAVFKFENQHLVVTTDMMFKSTHFPSILTPFQIGMRVVTANVSDIAAMCAKPLGMVISMGFDNPKKTFIDEMSKGINFISKEYGCPIAGGDTNKAPELTLSGTAFGITDNPIYRGGIIGEDICITGDVGKVNCALKLLEMKDKGILGNIEFEKTMSEFPRIMKKLAEPKARVKEGLLLNKIITSCCDISDGLSKDLNYTGNFEINSKNLLNSVSREVIEFCEKFDMDLLKTVLNSGEEFELLFTTPDFKKAEEKLKDINSVTKIGKVVESGKTVDGISVELEGYVHKW | not soluble |
| TEAAAQPHALPADAPDIAPERDLLSKFDGLIAERQKLLDSGVTDPFAIVMEQVKSPTEAVIRGKDTILLGTYNYMGMTFDPDVIAAGKEALEKFGSGTCGSRMLNGTFHDHMEVEQALRDFYGTTGAIVFSTGYMANLGIISTLAGKGEYVILDADSHASIYDGCQQGNAEIVRFRHNSVEDLDKRLGRLPKEPAKLVVLEGVYSMLGDIAPLKEMVAVAKKHGAMVLVDEAHSMGFFGPNGRGVYEAQGLEGQIDFVVGTFSKSVGTVGGFVVSNHPKFEAVRLACRPYIFTASLPPSVVATATTSIRKLMTAHEKRERLWSNARALHGGLKAMGFRLGTETCDSAIVAVMLEDQEQAAMMWQALLDGGLYVNMARPPATPAGTFLLRCSICAEHTPAQIQTVLGMFQAAGRAVGVIGLEHHHHHH | soluble |
| MGSDKIHHHHHHMATGSNIRTYFQGSWHEGDAPIIRAADHGAWLGSGVFDGARYFDGMAPDLEAHCARVNRSAEALMLTPTVSTQDMVEIVREGLKAYGPDQAVYIRPMYWGIDGDPTAIIPQADSTGFAVCLEEIPMAPATASATLTTTRFRRPVLEDAVVNAKAGCLYPNNARMLREARSKGFTNALVADALGNVAETATANIFMVKDGEVFTPIANGTFLAGITRARHIKNLRADGVPVHETVLSFADFHAADEVFMSGNMSKVTPVTALDDTQYQIGPIARRARALYWDWAKSTA | not soluble |
| MGSDKIHHHHHHMNAGLDGLLLLRAPNLAYATGLFLSANERPMGVWLPMDGDPILMLPGLERENAKGTGLTDLRFYDEFPGKEPPVLWMLDQIGRKHIGIDALDAALLDAARDKAVRIDLTDHAMAARTIKEPEEIALTVEAASFADLFLTRLHAAAGDIINQGGTEADLMADAMAHARGALMAKHKQAFSGTPMGITASVHSGPRAALPHGAVLERVPQPGETLIAGIGASLGGYHAESGVTLIVGSISAEQRQIMAAMKACNDAGVAACGARTTCTQANDAALDALRAAGLGDTIRHRIGHGMGLEGHEDPWLAPGDPTPIQTHMIFSNEPGVYRPGIDGYRTINTMIVTEDGVDIPSRFQANTPIDARVIAL | not soluble |
| MVLFTRFMLMGIAMPQISRTALVPYSAEQMYQLVNDVQSYPQFLPGCVGSRVLESSPAQMTAAVDVSKAGISKTFTTRNQLTRNQSILMHLVDGPFKKLIGGWKFTPLSPEACRIEFQLDFEFTNKLIELAFGRIFKELASNMVQAFTVRAKEVYRAGLEHHHHHH | not soluble |
| MNNHFGKGLMAGLHAPYAYSAHHAVNFCSEYKRGFVLGFTHRMFEKTGDRQLSAWEAGILTRRYGLDKEMVMDFFKENHSGMAVRFFMAGYRLEG | not soluble |
| MGSDKIHHHHHHMKRIVCPKDYYNEQGLLLSAKGTKITLSQFLRLQRKYDFLSETEANERTLASYEKIKQKICRKDERYKRADDQLLDQASALLVNIVFESKRKPWYMYLTALGNHINWLYTHSIDVALLSLMMAIESGVSQRSLWDLGVGGILHDVGKLLIPKKIIQKRTELSDIEKDILRQHCELGVECTTDCAFPILSQDIIAQHHERLDGSGYPNQLQEGQINEYVKIVMIADAFDTITAGRPYRKTVEVEEALAYLEDQEGAFSRMYLETLKNILVRP | not soluble |
| MPAHSFRIAAIPGDGIGLEVLPEGIRVLEAAALKHGLALEFDTFEWASCDYYLQHGKMMPDDWAEQLKQYDAIYFGAVGWPDKVPDHISLWGSLLKFRREFDQYVNIRPVRLFPGVPCALANRKVGDIDFVVVRENTEGEYSSLGGIMFENTENEIVIQESIFTRRGVDRILKYAFDLAEKRERKHVTSATKSNGMAISMPYWDKRTEAMAAHYPHVSWDKQHIDILCARFVLQPERFDVVVASNLFGDILSDLGPACAGTIGIAPSANLNPERNFPSLFEPVHGSAPDIFGKNIANPIAMIWSGALMLEFLGQGDERYQRAHDDMLNAIERVIADGSVTPDMGGTLSTQQVGAAISDTLARLD | soluble |
